The results in this text go back to patent US20180362620A1 (Genentech, published 2018).

For experiment [1], the target named is recombinant FcγRIIIa (V158) (R&D Systems, cat#4325-FC-050) (UniProt P08637). The experiment in a line: Biacore binding to recombinant FcγRIIIa (V158), high density.
The target is the same in experiment [2]. The experiment can be described thus: Biacore binding to recombinant FcγRIIIa (V158), low density.
The target in experiment [3] is T1, recombinant FcγRIIIa (V158) (R&D Systems, cat#4325-FC-050) (UniProt P08637 17-208). The experiment in a line: Biacore binding to recombinant FcγRIIIa (V158), high density. (In general: Surface plasmon resonance follows binding to a sensor surface in real time, without labels.)
T1 sequence (P08637 17-208 F176V limits assumed): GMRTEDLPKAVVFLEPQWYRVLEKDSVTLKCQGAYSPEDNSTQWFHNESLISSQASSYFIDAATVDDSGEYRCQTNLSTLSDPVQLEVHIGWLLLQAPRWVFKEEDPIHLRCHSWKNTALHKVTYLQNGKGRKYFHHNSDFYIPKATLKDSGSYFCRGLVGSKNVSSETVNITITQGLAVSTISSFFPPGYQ
Experiment [4] deals with T1, recombinant FcγRIIIa (V158) (R&D …). The experiment in a line: Biacore binding to recombinant FcγRIIIa.
Experiment [5] has the same target. The experiment can be described thus: Biacore binding to recombinant FcγRIIIa (V158), low density.
Experiment [6] has the same target. The experiment in a line: Biacore, FcγRIIIa (V158) binding (summary table; equals the 9th table, row 11, column 4).

Chain of recombinant FcγRIIIa (V158) (R&D Systems, cat#4325-FC-050) (UniProt P08637) (P08637 17-208 F176V limits assumed): as above

Consider Herceptin CHO (antibody), for which the Kd amounted to 67 nM in experiment [1] and 82 nM in experiment [2].

B1: humanized 13C6 variant h13C6a expressed in FUT8KO CHO cells (antibody)
heavy: EVQLVESGPALVKPTQTLTLTCTFSGFSLSTSGVGVGWIRQPPGKALEWLALIWWDDDKYYNPSLKSRLTISKDTSKNQVVLTMTNMDPVDTATYYCARRDPFGYDNAMGYWGQGTLVTVSSASTKGPSVFPLAPSSKSTSGGTAALGCLVKDYFPEPVTVSWNSGALTSGVHTFPAVLQSSGLYSLSSVVTVPSSSLGTQTYICNVNHKPSNTKVDKKVEPKSCDKTHTCPPCPAPELLGGPSVFLFPPKPKDTLMISRTPEVTCVVVDVSHEDPEVKFNWYVDGVEVHNAKTKPREEQYNSTYRVVSVLTVLHQDWLNGKEYKCKVSNKALPAPIEKTISKAKGQPREPQVYTLPPSREEMTKNQVSLTCLVKGFYPSDIAVEWESNGQPENNYKTTPPVLDSDGSFFLYSKLTVDKSWQQGNVFSCSVMHEALHNHYTQKSLSLSPGK
light: DIQMTQSPSSLSASVGDRVTITCKASQNVGTAVAWYQQKPGKAPKLLIYSASNRYTGVPSRFSGSGSGTDFTLTISSLQPEDFATYYCQQYSSYPLTFGQGTKVEIKRTVAAPSVFIFPPSDEQLKSGTASVVCLLNNFYPREAKVQWKVDNALQSGNSQESVTEQDSKDSTYSLSSTLTLSKADYEKHKVYACEVTHQGLSSPVTKSFNRGEC
notes: copies: 2 + 2
Regarding B1, the Kd was found to be 27 nM in experiment [3] and 38 nM in experiment [5]. Also, the “fold improvement of binding against CHO cell expressed material” value in experiment [4] was roughly 3 fold.

B2: humanized 13C6 variant h13C6a expressed in CHO cells (antibody)
heavy: EVQLVESGPALVKPTQTLTLTCTFSGFSLSTSGVGVGWIRQPPGKALEWLALIWWDDDKYYNPSLKSRLTISKDTSKNQVVLTMTNMDPVDTATYYCARRDPFGYDNAMGYWGQGTLVTVSSASTKGPSVFPLAPSSKSTSGGTAALGCLVKDYFPEPVTVSWNSGALTSGVHTFPAVLQSSGLYSLSSVVTVPSSSLGTQTYICNVNHKPSNTKVDKKVEPKSCDKTHTCPPCPAPELLGGPSVFLFPPKPKDTLMISRTPEVTCVVVDVSHEDPEVKFNWYVDGVEVHNAKTKPREEQYNSTYRVVSVLTVLHQDWLNGKEYKCKVSNKALPAPIEKTISKAKGQPREPQVYTLPPSREEMTKNQVSLTCLVKGFYPSDIAVEWESNGQPENNYKTTPPVLDSDGSFFLYSKLTVDKSWQQGNVFSCSVMHEALHNHYTQKSLSLSPGK
light: DIQMTQSPSSLSASVGDRVTITCKASQNVGTAVAWYQQKPGKAPKLLIYSASNRYTGVPSRFSGSGSGTDFTLTISSLQPEDFATYYCQQYSSYPLTFGQGTKVEIKRTVAAPSVFIFPPSDEQLKSGTASVVCLLNNFYPREAKVQWKVDNALQSGNSQESVTEQDSKDSTYSLSSTLTLSKADYEKHKVYACEVTHQGLSSPVTKSFNRGEC
notes: copies: 2 + 2
Consider B2, for which the Kd in experiment [3] stood at 113 nM; in experiment [5], 117 nM.

B3: humanized 13C6 variant h13C6i expressed in FUT8KO CHO cells (antibody)
heavy: EVQLVESGPALVKPTQTLTLTCTFSGFSLSTSGVGVGWIRQPPGKALEWLALIWWDDDKYYNPSLKSRLTISKDTSKNQVVLTMTNMDPVDTATYYCARRDPFGYDNAMGYWGQGTLVTVSSASTKGPSVFPLAPSSKSTSGGTAALGCLVKDYFPEPVTVSWNSGALTSGVHTFPAVLQSSGLYSLSSVVTVPSSSLGTQTYICNVNHKPSNTKVDKKVEPKSCDKTHTCPPCPAPELLGGPSVFLFPPKPKDTLMISRTPEVTCVVVDVSHEDPEVKFNWYVDGVEVHNAKTKPREEQYNSTYRVVSVLTVLHQDWLNGKEYKCKVSNKALPAPIEKTISKAKGQPREPQVYTLPPSREEMTKNQVSLTCLVKGFYPSDIAVEWESNGQPENNYKTTPPVLDSDGSFFLYSKLTVDKSWQQGNVFSCSVMHEALHNHYTQKSLSLSPGK
light: DIQMTQSPSSLSASVGDRVTITCKASQNVGTAVAWYQQKPGKSPKLLIYSASNRYTGVPSRFSGSGSGTDFTLTISSLQPEDFATYFCQQYSSYPLTFGQGTKVEIKRTVAAPSVFIFPPSDEQLKSGTASVVCLLNNFYPREAKVQWKVDNALQSGNSQESVTEQDSKDSTYSLSSTLTLSKADYEKHKVYACEVTHQGLSSPVTKSFNRGEC
notes: copies: 2 + 2
Consider B3, for which the results for the Kd in experiment [3], in experiment [6] and in experiment [5] were 24 nM, 24 nM and 36 nM, respectively. In experiment [4], the “fold improvement of binding against CHO cell expressed material” value was roughly 3 fold.

B4: humanized 13C6 variant h13C6i expressed in CHO cells (antibody)
heavy: EVQLVESGPALVKPTQTLTLTCTFSGFSLSTSGVGVGWIRQPPGKALEWLALIWWDDDKYYNPSLKSRLTISKDTSKNQVVLTMTNMDPVDTATYYCARRDPFGYDNAMGYWGQGTLVTVSSASTKGPSVFPLAPSSKSTSGGTAALGCLVKDYFPEPVTVSWNSGALTSGVHTFPAVLQSSGLYSLSSVVTVPSSSLGTQTYICNVNHKPSNTKVDKKVEPKSCDKTHTCPPCPAPELLGGPSVFLFPPKPKDTLMISRTPEVTCVVVDVSHEDPEVKFNWYVDGVEVHNAKTKPREEQYNSTYRVVSVLTVLHQDWLNGKEYKCKVSNKALPAPIEKTISKAKGQPREPQVYTLPPSREEMTKNQVSLTCLVKGFYPSDIAVEWESNGQPENNYKTTPPVLDSDGSFFLYSKLTVDKSWQQGNVFSCSVMHEALHNHYTQKSLSLSPGK
light: DIQMTQSPSSLSASVGDRVTITCKASQNVGTAVAWYQQKPGKSPKLLIYSASNRYTGVPSRFSGSGSGTDFTLTISSLQPEDFATYFCQQYSSYPLTFGQGTKVEIKRTVAAPSVFIFPPSDEQLKSGTASVVCLLNNFYPREAKVQWKVDNALQSGNSQESVTEQDSKDSTYSLSSTLTLSKADYEKHKVYACEVTHQGLSSPVTKSFNRGEC
notes: copies: 2 + 2
B4: the Kd was found to be 111 nM in experiment [3] and 122 nM in experiment [5].

The Kd is a measure of binding affinity in units of concentration.
